{
  "source": "patent US6613211B1",
  "about": "“Capillary electrokinesis based cellular assays” (Aclara BioSciences, Inc., priority 1999, dated 2003)",
  "key": {"fMLP receptor [1]": {"target": "T1, fMLP receptor (Homo sapiens, UniProt P21462)", "T1 sequence (P21462 1-350)": "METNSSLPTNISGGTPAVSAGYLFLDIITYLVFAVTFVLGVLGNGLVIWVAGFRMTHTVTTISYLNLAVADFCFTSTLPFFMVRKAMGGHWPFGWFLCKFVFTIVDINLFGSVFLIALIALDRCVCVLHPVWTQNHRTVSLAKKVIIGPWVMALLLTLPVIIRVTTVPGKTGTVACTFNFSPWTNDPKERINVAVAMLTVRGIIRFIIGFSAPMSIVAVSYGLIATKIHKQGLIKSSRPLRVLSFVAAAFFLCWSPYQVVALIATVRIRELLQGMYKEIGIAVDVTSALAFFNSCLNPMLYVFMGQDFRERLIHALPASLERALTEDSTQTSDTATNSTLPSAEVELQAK", "test": "Capillary cytometric competition of labeled fMLPK binding to cells with a high level of fMLP receptor (syringe pump)", "procedure": "In the next study, pumping means was employed to move cells through a capillary. […] The buffer solution was 140 mM NaCl, 1 mM KH2PO4, 5 mM Na2HPO4, 1.5 mM CaCl2, 0.3 mM MgSO4, 1 mM MgCl2, 0.2% BSA. The cell concentration in the reservoir was 10^6/ml and the receptor concentration was 413 pM. […] […] The device was comprised of a reservoir having a volume of 500 μl into which was introduced a capillary having an I.D. of 100 μm. In place of an electroosmotic pump, a syringe pump operating at 500 μl/min applied to the other end of the capillary was employed. The reading was taken at about 100 mm from the capillary inlet."}, "fMLP receptor [2]": {"target": "T1, fMLP receptor", "test": "Calibration study, Cy5-fMLPK fluorescence with cells read with P/ACE", "type": "binding", "details": "solution 3: 25 μl cells, 25 μl 12 nM Cy5-fMLPK, 0.25 μl 1 mM fMLPK", "procedure": "(§1) In the next study, pumping means was employed to move cells through a capillary. The cells were cultured cells having a high level of the fMLP receptor on the surface. The buffer solution was 140 mM NaCl, 1 mM KH2PO4, 5 mM Na2HPO4, 1.5 mM CaCl2, 0.3 mM MgSO4, 1 mM MgCl2, 0.2% BSA. The cell concentration in the reservoir was 10^6/ml and the receptor concentration was 413 pM. […] The labeled ligand was 4 nM, while the ligand concentration was varied from 2.5 nM to 250 nM. The device was comprised of a reservoir having a volume of 500 μl into which was introduced a capillary having an I.D. of 100 μm. In place of an electroosmotic pump, a syringe pump operating at 500 μl/min applied to the other end of the capillary was employed. The reading was taken at about 100 mm from the capillary inlet. The results are shown in FIGS. 4 and 5, where TR stands for tracer, RC refers to receptor and TRC refers to both Tracer and Receptor.\nIn and initial study for calibration, four solutions were prepared: (1) 25 μl buffer and 25 μl Cy5-fMLPK; (2) 25 μl cells and 25 μl 12 nM Cy5-fMLPK; (3) 25 μl cells and 25 μl 12 nM Cy5-fMLPK and 0.25 μl 1 mM fMLPK; and (4) 25 μl cells and 25 μl buffer. The flurescence was read with the aid of a P/ACE, which covers a volume of 50 μl."}, "fMLP receptor [3]": {"target": "T1, fMLP receptor", "test": "Cy-5-fMLPK fluorescence with cells read with Hitachi fluorimeter", "type": "binding", "details": "solution 3: 125 μl Cy-5-fMLPK, 125 μl cells, 1 μl 1 mM fMLPK", "procedure": "as §1\nIn the next study four solutions were prepared using the Cy-5 conjugate of fMLPK. The compositions are as follows: (1) 125 μl buffer and 125 μl Cy-5-fMLPK; (2) 125 μl Cy5-fMLPK and 125 μl cells; (3) 125 μl Cy-5-fMLPK, 125 μl cells and 1 μl 1 mM fMLPK; and 125 μl buffer and 125 μl cells. An Hitachi fluorimeter was used to read scence which covers 220 μl. For buffer, the readings were 34,33."}},
  "note": "Values joined by “and” are separate entries in the source; they are usually repeats but may differ in a detail not shown here. Identical values can stand only once. Where no end group is shown, it is not given here. The star is where a group is joined. For = O=C*",
  "data": [
    {"substance": "N-formyl-Met-Leu-Phe-Lys (For-MLFK) [fMLPK]", "values": [
      {"measurement": "total peak height", "setting": "fMLP receptor [1]; fMLPK 2.5 nM", "value": 19},
      {"measurement": "total peak height", "setting": "fMLP receptor [1]; fMLPK 250 nM", "value": "< 1"},
      {"measurement": "total peak height", "setting": "fMLP receptor [1]; fMLPK 2.5 μM", "value": 0},
      {"measurement": "fluorescence, column A", "setting": "fMLP receptor [2]", "value": "1,97 and 1.99"},
      {"measurement": "fluorescence, column B", "setting": "fMLP receptor [2]", "value": "1.98 and 1.97"},
      {"measurement": "fluorescence, column C", "setting": "fMLP receptor [2]", "value": "2.06, 2.06"},
      {"measurement": "fluorescence, column D", "setting": "fMLP receptor [2]", "value": "1.95 and 1.99"},
      {"measurement": "fluorescence, column A", "setting": "fMLP receptor [3]", "value": 844},
      {"measurement": "fluorescence, column C", "setting": "fMLP receptor [3]", "value": 826},
      {"measurement": "fluorescence, column D", "setting": "fMLP receptor [3]", "value": 812}
    ]}
  ]
}
